{"source": "patent US11207433B2", "about": "“Imaging agents and uses thereof” (Washington University, priority 2018, dated 2021)", "origin": "cited, not measured here", "biological_target": "T1, NPR-C receptor (Homo sapiens, UniProt P17342)", "T1 sequence (P17342 27-541)": "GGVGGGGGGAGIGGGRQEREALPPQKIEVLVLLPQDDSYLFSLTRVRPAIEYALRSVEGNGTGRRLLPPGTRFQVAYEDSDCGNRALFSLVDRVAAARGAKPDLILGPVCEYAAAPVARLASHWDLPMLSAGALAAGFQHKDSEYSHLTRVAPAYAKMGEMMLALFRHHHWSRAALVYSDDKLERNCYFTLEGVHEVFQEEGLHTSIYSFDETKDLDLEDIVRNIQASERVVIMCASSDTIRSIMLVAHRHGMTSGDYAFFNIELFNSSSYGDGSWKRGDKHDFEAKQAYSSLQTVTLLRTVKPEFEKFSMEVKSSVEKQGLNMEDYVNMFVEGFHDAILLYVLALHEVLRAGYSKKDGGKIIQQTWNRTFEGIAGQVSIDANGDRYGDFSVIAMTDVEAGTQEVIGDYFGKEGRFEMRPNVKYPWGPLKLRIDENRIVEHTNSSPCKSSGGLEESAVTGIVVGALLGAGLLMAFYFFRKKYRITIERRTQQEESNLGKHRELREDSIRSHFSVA", "details": "in vivo", "note": "Bridges are numbered along the chain shown (N, C = ends). Where no end group is shown, it is not given here."}
{"substance": "^64Cu-DOTA-CANF-Comb: CANF peptide functionalized polymeric nanoparticle, described in U.S. Patent Application Publication No. 2011/0300071 (RSSCFGGRIDRIGAC-NH2; disulfide 4-15; also: conjugated to polymeric nanoparticle, DOTA chelator, 64Cu label)", "values": [{"measurement": "delay from injection to optimal PET imaging time", "value": "~12", "unit": "h"}]}
